Experimental data published in EP4388012A1 (dated 2024).
Where two headings read alike, the source gives them in different places.

B1: 3H4, murine HLA-E-VL9-specific IgM monoclonal antibody (antibody, V domains shown)
VH: EVQLQESGPELVKPGASVKIPCKASGYTFTDYNMDWVKQSHGKSLEWIGDINPNNGGTIYNQKFKGKATLTVDKSSSTAYMELRSLTSEDTAVYYCARPDYYGSSYGWYFDVWGTGTTVTVSS
VL: DIVITQSPSSMYASLGERVTITCKASQDINSYLSWFQQKPGKSPKTLIYRANRLVDGVPSRFSGSGSGQDYSLTISSLEYEDMGIYYCLQYDEFPLTFGAGTKLELK
notes: also called mAb 3H4; 3H4 IgM
B2: 3H4 as a recombinant human IgG1 (unoptimized, wild-type 3H4 on a human IgG1 backbone, 3H4 Gwt) (antibody, V domains shown)
VH: EVQLQESGPELVKPGASVKIPCKASGYTFTDYNMDWVKQSHGKSLEWIGDINPNNGGTIYNQKFKGKATLTVDKSSSTAYMELRSLTSEDTAVYYCARPDYYGSSYGWYFDVWGTGTTVTVSS
VL: DIVITQSPSSMYASLGERVTITCKASQDINSYLSWFQQKPGKSPKTLIYRANRLVDGVPSRFSGSGSGQDYSLTISSLEYEDMGIYYCLQYDEFPLTFGAGTKLELK
notes: also called 3H4 IgG; wild-type 3H4 IgG

Experiments:
[1] = target: T1, soluble HLA-E-VL9 complex (HLA-E*01:03 heavy chain refolded with b2M and synthetic VL9 peptide) (human)
[2] = target: T1, soluble HLA-E-VL9 complex (HLA-E*01:03 …); assay: SPR, antibody immobilized on CM5 chip, soluble HLA-E-VL9 flowed, 1:1 model

Binder	Kd [1] [µM]	Kd [2] [µM]
B1	8.1	–
B2	–	49.8
